The results in this text go back to patent US20150344540A1, “NOVEL GLP-1 RECEPTOR AGONISTS WITH CHOLESTEROL EFFLUX ACTIVITY” (NOVO NORDISK A/S, priority 2012, published 2015).

First the molecules themselves.
B1: [Aib8,Glu23,Val25,Glu34,Lys35,Aib36,Leu37]-GLP-1-(7-37)-peptidyl-Ser-Phe-Leu amide (peptide)
peptide: H[Aib]EGTFTSDVSSYLEGEAVKEFIAWLVEK[Aib]LSFL-NH2
modifications: N-terminus assumed
SMILES: CC[C@H](C)[C@H](NC(=O)[C@H](Cc1ccccc1)NC(=O)[C@H](CCC(=O)O)NC(=O)[C@H](CCCCN)NC(=O)[C@@H](NC(=O)[C@H](C)NC(=O)[C@H](CCC(=O)O)NC(=O)CNC(=O)[C@H](CCC(=O)O)NC(=O)[C@H](CC(C)C)NC(=O)[C@H](Cc1ccc(O)cc1)NC(=O)[C@H](CO)NC(=O)[C@H](CO)NC(=O)[C@@H](NC(=O)[C@H](CC(=O)O)NC(=O)[C@H](CO)NC(=O)[C@@H](NC(=O)[C@H](Cc1ccccc1)NC(=O)[C@@H](NC(=O)CNC(=O)[C@H](CCC(=O)O)NC(=O)C(C)(C)NC(=O)[C@@H](N)Cc1c[nH]cn1)[C@@H](C)O)[C@@H](C)O)C(C)C)C(C)C)C(=O)N[C@@H](C)C(=O)N[C@@H](Cc1c[nH]c2ccccc12)C(=O)N[C@@H](CC(C)C)C(=O)N[C@H](C(=O)N[C@@H](CCC(=O)O)C(=O)N[C@@H](CCCCN)C(=O)NC(C)(C)C(=O)N[C@@H](CC(C)C)C(=O)N[C@@H](CO)C(=O)N[C@@H](Cc1ccccc1)C(=O)N[C@@H](CC(C)C)C(N)=O)C(C)C
B2: [Aib8,Glu23,Val25,Leu33,Glu34,Lys35,Aib36,Lys37]-GLP-1-(7-37)-peptidyl-Glu-Trp-Leu amide (peptide)
peptide: H[Aib]EGTFTSDVSSYLEGEAVKEFIAWLLEK[Aib]KEWL-NH2
modifications: N-terminus assumed
SMILES: CC[C@H](C)[C@H](NC(=O)[C@H](Cc1ccccc1)NC(=O)[C@H](CCC(=O)O)NC(=O)[C@H](CCCCN)NC(=O)[C@@H](NC(=O)[C@H](C)NC(=O)[C@H](CCC(=O)O)NC(=O)CNC(=O)[C@H](CCC(=O)O)NC(=O)[C@H](CC(C)C)NC(=O)[C@H](Cc1ccc(O)cc1)NC(=O)[C@H](CO)NC(=O)[C@H](CO)NC(=O)[C@@H](NC(=O)[C@H](CC(=O)O)NC(=O)[C@H](CO)NC(=O)[C@@H](NC(=O)[C@H](Cc1ccccc1)NC(=O)[C@@H](NC(=O)CNC(=O)[C@H](CCC(=O)O)NC(=O)C(C)(C)NC(=O)[C@@H](N)Cc1c[nH]cn1)[C@@H](C)O)[C@@H](C)O)C(C)C)C(C)C)C(=O)N[C@@H](C)C(=O)N[C@@H](Cc1c[nH]c2ccccc12)C(=O)N[C@@H](CC(C)C)C(=O)N[C@@H](CC(C)C)C(=O)N[C@@H](CCC(=O)O)C(=O)N[C@@H](CCCCN)C(=O)NC(C)(C)C(=O)N[C@@H](CCCCN)C(=O)N[C@@H](CCC(=O)O)C(=O)N[C@@H](Cc1c[nH]c2ccccc12)C(=O)N[C@@H](CC(C)C)C(N)=O
B3: [Aib8,Glu23,Val25,Gln30,His31,Glu34,Lys35,Leu36,Lys37]-GLP-1-(7-37)-peptidyl-Glu-Phe-Leu amide (peptide)
peptide: H[Aib]EGTFTSDVSSYLEGEAVKEFIQHLVEKLKEFL-NH2
modifications: N-terminus assumed
SMILES: CC[C@H](C)[C@H](NC(=O)[C@H](Cc1ccccc1)NC(=O)[C@H](CCC(=O)O)NC(=O)[C@H](CCCCN)NC(=O)[C@@H](NC(=O)[C@H](C)NC(=O)[C@H](CCC(=O)O)NC(=O)CNC(=O)[C@H](CCC(=O)O)NC(=O)[C@H](CC(C)C)NC(=O)[C@H](Cc1ccc(O)cc1)NC(=O)[C@H](CO)NC(=O)[C@H](CO)NC(=O)[C@@H](NC(=O)[C@H](CC(=O)O)NC(=O)[C@H](CO)NC(=O)[C@@H](NC(=O)[C@H](Cc1ccccc1)NC(=O)[C@@H](NC(=O)CNC(=O)[C@H](CCC(=O)O)NC(=O)C(C)(C)NC(=O)[C@@H](N)Cc1c[nH]cn1)[C@@H](C)O)[C@@H](C)O)C(C)C)C(C)C)C(=O)N[C@@H](CCC(N)=O)C(=O)N[C@@H](Cc1c[nH]cn1)C(=O)N[C@@H](CC(C)C)C(=O)N[C@H](C(=O)N[C@@H](CCC(=O)O)C(=O)N[C@@H](CCCCN)C(=O)N[C@@H](CC(C)C)C(=O)N[C@@H](CCCCN)C(=O)N[C@@H](CCC(=O)O)C(=O)N[C@@H](Cc1ccccc1)C(=O)N[C@@H](CC(C)C)C(N)=O)C(C)C

Where no end group is shown, it is not given here. [ ]: non-standard residue; d: D form. Aib = CC(C)(N)C(=O)O

The target of this experiment is human GLP-1 receptor (human, UniProt P43220). Put plainly: cell-based or functional assay.
On to B1, for which the “CRE luciferase EC50, 0% HSA” value was 0.872 nM and the “CRE luciferase EC50, 1% HSA” value is 0.368 nM.
Consider B2, for which the “CRE luciferase EC50, 0% HSA” value came to 0.659 nM and the “CRE luciferase EC50, 1% HSA” value was 0.32 nM.
For B3, the “CRE luciferase EC50, 0% HSA” value was determined as 0.077 nM and the “CRE luciferase EC50, 1% HSA” value worked out at 0.025 nM.
